From article PMC11228805

Biological target: gp41 (Q567K/A582T/A532V/I535M/L543Q/K574R/S752F/I756F) of the HIV-1AD8 Tri FPPR Bam Envs with K574R (HIV-1 AD8)
Assay: gp120 shedding from virus particles

“gp120 (Q114E/K59A) of the HIV-1AD8 Tri FPPR Bam-K59A and Tri FPPR Bam-K59A/K574R Envs (natural protein)” showed a fold resistance to gp120 shedding (CD4mc+cold) against the Tri Bam Env of 40 times.
For “gp120 (Q114E) of the HIV-1AD8 Tri Bam, Tri FPPR Bam and Tri FPPR Bam-K574R Envs (natural protein)”, the fold reduction of gp120 shedding against the Tri FPPR Bam Env was 3.9 fold.
